Assay results from patent US20100280227A1 (Genentech, published 2010).
Several values for one entry are separate records, joined by “and”; a condition that tells them apart may be missing. Identical values can stand only once.

Legend:
[1] = biological target: T1, variant human BR3-Fc fusion; assay: competition ELISA on vhBR3-Fc against biotinylated 11G9
T1 construct: produced in CHO cells; also called vBR3-Fc; vhBR3-Fc

[2] = biological target: T2, human BR3 expressed on cells (human, UniProt Q96RJ3 1-184); assay: BJAB cell direct binding assay, anti-mouse IgG Fc-HRP
T2 construct: whole, on cells; also called BR3 on BJAB cells; cell surface BR3
Description: For binding assays, cells were washed with cold assay buffer (phosphate buffered saline (PBS), pH 7.4) containing 1% fetal bovine serum (FBS)). […] The plates containing the cells were centrifuged at 1200 rpm for 5 min at 4° C., and the supernatant was carefully aspirated away from the cell pellets. […] For these experiments, full length antibodies (IgG) were used.
(§1) Direct and competitive binding assays were performed as follows. For the direct binding assay, IgG antibody samples were serially diluted in cold assay buffer to concentrations ranging between 300-0.02 nM. Samples (100 μl) were added to the pelleted cells, and the plates were incubated for 45 min on ice. An additional 100 μl assay buffer was then added to each well, and the plates were centrifuged at 1200 rpm for 5 min at 4° C. After carefully aspirating the supernatant, the cells were washed two additional times with 200 μl assay buffer. An anti-mouse IgG Fc-HRP or goat anti-human IgG Fc-HRP, as appropriate, was diluted 1/10,000 in cold assay buffer was added (100 μl/well, Jackson ImmunoResearch, West Grove, Pa.), and the plates were incubated on ice for 45 min. Following two washes with 200 μl cold assay buffer, tetramethyl benzidine (TMB, Kirkegaard & Perry Laboratories, Gaithersburg, Md.) was added, and color was allowed to develop for 10 min. One hundred microliters 1 M H₃PO₄ was added to stop the reaction. The plates were then read on a microplate reader at 450 nm with a 620 nm reference. In the direct binding assay, the indicated concentrations of mAbs were added to BJAB cells and bound mAb was detected.

[3] = biological target: T3, human BR3 displayed on phage, R30 alanine-scan mutant (human, UniProt Q96RJ3 1-61, limits assumed); assay: shotgun alanine scan of phage-displayed BR3; F against wild type;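 further: Phage-displayed BR3 shotgun alanine libraries, two selection rounds for anti-BR3 antibody binding, normalized to a display selection, F above 1 marks a harmful substitution, below 1 a beneficial one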
T3 construct: One position of the shotgun alanine scan of BR3 on phage
Excerpt: (§2) At the sites of mutation, wild-type codons were replaced with the corresponding shotgun alanine codon (Weiss, supra). […] Library 1 encoded shotgun codons at positions 17, 18, 20-23, 25, 27, 28, 30, and 33, while library 2 encoded shotgun codons at positions 26, 29, 31, 34, and 36-42. Each library contained 2×10⁹ members, allowing for complete representation of the theoretical diversity (>10⁴-fold excess).
(§3) The display selection was included in order to normalize the anti-BR3 antibody-binding selection for expression differences between library members. Phage eluted from each target were propagated in E. coli XL 1-blue; amplified phage were used for selection against the same target as in the previous round. After two rounds of selection, 48 individual clones from each library and selection were grown in a 96-well format in 400 L of 2YT medium supplemented with carbenicillin and KO7 helper phage.
(§4) F-values were calculated as previously described (Weiss, supra; Gordon, supra). […] Deleterious mutations have ratios >1, while advantageous mutations have ratios <1; boldface indicates a >10-fold effect.

[4] = biological target: T4, human BR3 displayed on phage, F25 alanine-scan mutant (human, UniProt Q96RJ3 1-61, limits assumed); assay: as above
T4 construct: One position of the shotgun alanine scan of BR3 on phage
Excerpt: as §2, §3, §4

[5] = biological target: T5, human BR3 displayed on phage, V20 alanine-scan mutant (human, UniProt Q96RJ3 1-61, limits assumed); assay: as above
T5 construct: One position of the shotgun alanine scan of BR3 on phage
Excerpt: as §2, §3, §4

[6] = biological target: T6, human BR3 displayed on phage, R42 alanine-scan mutant (human, UniProt Q96RJ3 1-61, limits assumed); assay: as above
T6 construct: One position of the shotgun alanine scan of BR3 on phage
Excerpt: as §2, §3, §4

[7] = biological target: T7, human BR3 displayed on phage, H31 alanine-scan mutant (human, UniProt Q96RJ3 1-61, limits assumed); assay: as above
T7 construct: One position of the shotgun alanine scan of BR3 on phage
Excerpt: as §2, §3, §4

[8] = biological target: T8, human BR3 displayed on phage, L38 alanine-scan mutant (human, UniProt Q96RJ3 1-61, limits assumed); assay: as above
T8 construct: One position of the shotgun alanine scan of BR3 on phage
Excerpt: as §2, §3, §4

[9] = biological target: T9, human BR3 displayed on phage, D26 alanine-scan mutant (human, UniProt Q96RJ3 1-61, limits assumed); assay: as above
T9 construct: One position of the shotgun alanine scan of BR3 on phage
Excerpt: as §2, §3, §4

[10] = biological target: T10, human BR3 displayed on phage, P18 alanine-scan mutant (human, UniProt Q96RJ3 1-61, limits assumed); assay: as above
T10 construct: One position of the shotgun alanine scan of BR3 on phage
Excerpt: as §2, §3, §4

[11] = biological target: T11, human BR3 displayed on phage, G36 alanine-scan mutant (human, UniProt Q96RJ3 1-61, limits assumed); assay: as above
T11 construct: One position of the shotgun alanine scan of BR3 on phage
Excerpt: as §2, §3, §4

[12] = biological target: T12, human BR3 displayed on phage, L37 alanine-scan mutant (human, UniProt Q96RJ3 1-61, limits assumed); assay: as above
T12 construct: One position of the shotgun alanine scan of BR3 on phage
Excerpt: as §2, §3, §4

[13] = biological target: T13, human BR3 displayed on phage, V33 alanine-scan mutant (human, UniProt Q96RJ3 1-61, limits assumed); assay: as above
T13 construct: One position of the shotgun alanine scan of BR3 on phage
Excerpt: as §2, §3, §4

[14] = biological target: T14, human BR3 displayed on phage, T17 alanine-scan mutant (human, UniProt Q96RJ3 1-61, limits assumed); assay: as above
T14 construct: One position of the shotgun alanine scan of BR3 on phage; the F value gives the effect of this change against wild type; See m1 for the parent
Excerpt: as §2, §3, §4

[15] = biological target: T15, human BR3 displayed on phage, R39 alanine-scan mutant (human, UniProt Q96RJ3 1-61, limits assumed); assay: as above
T15 construct: One position of the shotgun alanine scan of BR3 on phage
Excerpt: as §2, §3, §4

[16] = biological target: T16, human BR3 displayed on phage, P41 alanine-scan mutant (human, UniProt Q96RJ3 1-61, limits assumed); assay: as above
T16 construct: One position of the shotgun alanine scan of BR3 on phage
Excerpt: as §2, §3, §4

[17] = biological target: human BR3 displayed on phage, mutated at A34 in the alanine scan (human, UniProt Q96RJ3 1-61, limits assumed); assay: as above
Excerpt: as §2, §3, §4

[18] = biological target: T17, human BR3 displayed on phage, V29 alanine-scan mutant (human, UniProt Q96RJ3 1-61, limits assumed); assay: as above
T17 construct: One position of the shotgun alanine scan of BR3 on phage
Excerpt: as §2, §3, §4

[19] = biological target: T18, human BR3 displayed on phage, L27 alanine-scan mutant (human, UniProt Q96RJ3 1-61, limits assumed); assay: as above
T18 construct: One position of the shotgun alanine scan of BR3 on phage
Excerpt: as §2, §3, §4

[20] = biological target: T19, human BR3 displayed on phage, E23 alanine-scan mutant (human, UniProt Q96RJ3 1-61, limits assumed); assay: as above
T19 construct: One position of the shotgun alanine scan of BR3 on phage
Excerpt: as §2, §3, §4

[21] = biological target: T20, human BR3 displayed on phage, L28 alanine-scan mutant (human, UniProt Q96RJ3 1-61, limits assumed); assay: as above
T20 construct: One position of the shotgun alanine scan of BR3 on phage
Excerpt: as §2, §3, §4

[22] = biological target: T21, human BR3 displayed on phage, P21 alanine-scan mutant (human, UniProt Q96RJ3 1-61, limits assumed); assay: as above
T21 construct: One position of the shotgun alanine scan of BR3 on phage
Excerpt: as §2, §3, §4

[23] = biological target: T22, human BR3 displayed on phage, T40 alanine-scan mutant (human, UniProt Q96RJ3 1-61, limits assumed); assay: as above
T22 construct: One position of the shotgun alanine scan of BR3 on phage
Excerpt: as §2, §3, §4

[24] = biological target: T2, human BR3 expressed on cells; assay: BJAB cells, direct binding
Description: as §1

[25] = biological target: T2, human BR3 expressed on cells; assay: BJAB cell competitive binding assay against biotin-BAFF
Description: BJAB cells, a human Burkitt lymphoma cell line, were cultured in RPMI media supplemented with 10% FBS, penicillin (100 U/ml, Gibco-Invitrogen, Carlsbad, Calif.), streptomycin (100 μg/ml, Gibco), and L-glutamine (10 mM). […] For binding assays, cells were washed with cold assay buffer (phosphate buffered saline (PBS), pH 7.4) containing 1% fetal bovine serum (FBS)). […] The plates containing the cells were centrifuged at 1200 rpm for 5 min at 4° C., and the supernatant was carefully aspirated away from the cell pellets. […] For these experiments, full length antibodies (IgG) were used.
(§5) The diluted samples were added to the pelleted BJAB cells in 96 well plates as described above. After 45 min incubation on ice, the cells were washed twice with 200 μl cold assay buffer, and streptavidin-HRP (AMDEX, Amersham Biosciences, Piscataway, N.J.) diluted 1/5,000 in assay buffer was added (100 μl/well). The plates were incubated for a final 45 min on ice. After washing twice with cold assay buffer, color was developed using TMB, the reaction was stopped with H₃PO₄, and the plates were read as described above.

[26] = biological target: T2, human BR3 expressed on cells; assay: BJAB cells, competition with biotin-BAFF
Description: as §5

[27] = biological target: T1, variant human BR3-Fc fusion; assay: competition ELISA on vhBR3-Fc against biotinylated 9.1
[28] = biological target: T1, variant human BR3-Fc fusion; assay: SPR, vBR3-Fc on chip;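 further: Anti-BR3 antibodies passed over chip-bound BR3-Fc in PBS with 0.05% polysorbate 20, on and off rates fitted together globally to a 1:1 binding model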
Description: (§6) After coupling, unoccupied sites on the chip were blocked by injecting 20 μl of 1M ethanolamine, pH 8.5. The running buffer was PBS containing 0.05% polysorbate 20. […] The binding surface was regenerated by injecting 20-30 μl of 10 mM glycine.HCl (pH 1.5). […] Data were analyzed using a 1:1 binding model using global fitting. The association and dissociation rate constants were fitted simultaneously (BIAevaluation software).
(§7) A high flow rate was used in order to minimize mass transport effects.

[29] = biological target: T23, human BAFF (residues 82-285) (human, UniProt Q9Y275 82-285); assay: BJAB cell competitive binding assay: soluble BR3-Fc keeps biotin-BAFF from BR3 on the cells
T23 construct: range 82-285; also called biotin-BAFF; biotinylated BAFF
T23 sequence (Q9Y275 82-285 limits assumed): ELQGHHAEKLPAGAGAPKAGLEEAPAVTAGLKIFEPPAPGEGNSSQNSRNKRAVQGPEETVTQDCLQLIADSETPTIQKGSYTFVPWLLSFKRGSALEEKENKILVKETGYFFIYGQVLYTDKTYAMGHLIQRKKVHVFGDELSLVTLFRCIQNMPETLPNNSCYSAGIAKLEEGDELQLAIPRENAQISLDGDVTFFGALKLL

[30] = biological target: T24, human BR3 extracellular domain (human, UniProt Q96RJ3 1-61); assay: SPR, IgG on chip, BR3 ECD in solution
T24 construct: biotinylated where used as tracer; also called hBR3-ECD; BR3-ECD

[31] = biological target: T1, variant human BR3-Fc fusion; assay: competition ELISA on vhBR3-Fc against biotinylated 2.1
[32] = biological target: human BR3 displayed on phage, mutated at A22 in the alanine scan (human, UniProt Q96RJ3 1-61, limits assumed); assay: shotgun alanine scan of phage-displayed BR3; F against wild type;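 further: Phage-displayed BR3 shotgun alanine libraries, two selection rounds for anti-BR3 antibody binding, normalized to a display selection, F above 1 marks a harmful substitution, below 1 a beneficial one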
Excerpt: as §2, §3, §4

[33] = biological target: T24, human BR3 extracellular domain; assay: SPR, BR3 ECD on chip;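 further: Anti-BR3 antibodies passed over the chip at high flow in PBS with 0.05% polysorbate 20, on and off rates fitted together globally to a 1:1 binding model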
Description: as §6, §7

| IC50 (read off the curve) [1] | EC50 [2] | F value [3] | F value [4] | F value [5] | F value [6] | F value [7] | F value [8] | F value [9] | F value [10] | F value [12] | F value [14] | F value [15] | F value [16] | F value [17] | F value [18] | F value [19] | F value [20] | EC50 [24] | IC50 [26] | Binder | also measured |
| --- | --- | --- | --- | --- | --- | --- | --- | --- | --- | --- | --- | --- | --- | --- | --- | --- | --- | --- | --- | --- | --- |
| ~0.2 µg/mL | 170 pM | 1.7 | 38 | 1.1 | 0.9 | 2.8 | 0.9 | 8.5 | 0.5 | 0.7 | 0.5 | 3.1 | 1.7 | 32 | 1 | 1.1 | 6.9 | 190 pM | 380 pM | murine monoclonal antibody 11G9 (antibody, V domains shown, mouse hybridoma IgG; also called mu11G9) VH: DVQLQESGPSLVKPSQTLSLTCSVTGDSITSGYWNWIRKFPGNKLEYMGYISYSGSTYYNPSLKSRISITRDTSKNQFYLQLLSVTTEDTATYYCAGLDGLYWYFDVWGAGTLVTVSS VL: DIVMTQTPLSLPVSLGDQASISCRSSQSLVHSNGNTYLHWYLQKPGQSPKLLIYKVSNRFSGVPDRFSGSGSGTDFTLKISRVEAEDLGVYFCSQSTHVPPFTFGSGT | F value [11]: 1.8; F value [13]: 24; F value [21]: 0.4; F value [22]: 40; F value [23]: 0.5; IC50 [25]: 290 pM |
| ~0.1 µg/mL | 460 pM |  |  |  |  |  |  |  |  |  |  |  |  |  |  |  |  | 540 pM | 1300 pM | murine monoclonal antibody 9.1 (antibody, V domains shown, mouse hybridoma IgG; also called 9.1 IgG; mu9.1) VH: EVKLVESGGGLVQPGGSLRLSCAISGFTVTAYYMSWVRQPPGKALEWLGFIRDKANGYTTEYNPSVKGRFTISRDNSQSIFYLQMNTLRAEDSATYYCAQVRRALDYWGQGTTVTVSA VL: DIVMSQSPSSLAVSVGEKVTMSCKSSQSLLYSSNQNNYLAWYQQKPGQSPKLLIYWASTRESGVPDRFTGSGSGTDFTLTISSVKAEDLAVYYCQQYYTYPYTFGGGT | IC50 (read off the curve) [27]: ~0.6 µg/mL; Kd [28]: 610 pM; IC50 [25]: 860 pM |
|  |  |  |  |  |  |  |  |  |  |  |  |  |  |  |  |  |  |  |  | mouse BR3-Fc (Fc fusion, (BR3 ECD fused to a murine Fc); also called mBR3-Fc; murine BR3-Fc) STGARRLRVRSQRSRDSSVPTQCNQTECFDPLVRNCVSCELFHTPDTGHTSSLEPGTALQPQEGQVTGDKKIVPRDCGCKPCICTVPEVSSVFIFPPKPKDVLTITLTPKVTCVVVDISKDDPEVQFSWFVDDVEVHTAQTQPREEQFNSTFRSVSELPIMHQDWLNGKEFKCRVNSAAFPAPIEKTISKTKGRPKAPQVYTIPPPKEQMAKDKVSLTCMITDFFPEDITVEWQWNGQPAENYKNTQPIMNTNGSYFVYSKLNVQKSNWEAGNTFTCSVLHEGLHNHHTEKSLSHSPGK | binding result [2]: no binding (tested: about 35 ng/ml as the axis is labelled); IC50 [29]: 12700 pM |
| ~0.1 µg/mL |  | 10 | 49 | 3 | 1.8 | 0.6 | 0.9 | 6.1 | 0.5 | 0.1 | 0.6 | 0.5 | 0.7 | 62 | 0.5 | 0.8 | 9.6 | 160 pM | 250 pM | murine monoclonal antibody 2.1 (antibody, V domains shown, mouse hybridoma IgG; also called 2.1 IgG; mu2.1) VH: EVQLQESGPSLVKPSQTLSLTCSVTGDSITRGYWNWIRKFPGNKLEFMGYINYSGTTYYNPSLKSRISITRDTSKNQYYLQLNSVTTEDTATYYCATPHTYGAMDYWGQGTTLTVSA VL: DIVLTQSPVSLAVSLGQRATISCRASESVDDYGISFMHWYQQKPGQPPKLLIYRASDLESGIPARFSGSGSGTDFTLTINPVETDDVAIYYCQQTSKDPWTFGGGT | Kd [30]: 150 pM; koff [30]: 1.7e-05 s⁻¹; kon [30]: 110000 M⁻¹ s⁻¹; IC50 (read off the curve) [31]: ~0.6 µg/mL; F value [21]: 0.1; F value [32]: 3.2; F value [22]: 1.9; F value [23]: 0.2; Kd [28]: 80 pM and 70 pM; koff [28]: 3.4e-05 s⁻¹ and 3.3e-05 s⁻¹; kon [28]: 440000 M⁻¹ s⁻¹ and 470000 M⁻¹ s⁻¹; Kd [33]: 50 pM; koff [33]: 5.2e-05 s⁻¹; kon [33]: 960000 M⁻¹ s⁻¹ |
